Measured values taken from patent US20190359693A1.

B1: SD3093 (VHH)
VHH: EVQLVESGGGLVQPGGSLRLSCAISGLSLDTYAVGWFRQAPGKEREGVSCISSGHGMTYYADSVKGRFTISTDNSKNTVYLQMNSLRAEDTAVYYCATESRYYCSDNWPAPQRYIYWGQGTLVTVSS
B2: SD3013 (VHH)
VHH: EVQLVESGGGVVQPGGSLRLSCAASISIFDIYAMDWYRQAPGKQRELVATSFRDGSTYYADSVKGRFTISRDNSKNTLYLQMNSLRAEDTAVYLCHVSLYRDPLGVAGGMGVYWGKGALVTVSS
B3: SD3021 (VHH)
VHH: EVQLVESGGGVVQPGGSLRLSCAASISIFDIYAMDWYRQAPGKQRELVAVSFRDGSTYYADSVKGRFTISRDNSKNTLYLQMNSLRPEDTAVYLCHVSLYRDPLGVAGGLGVYWGKGALVTVSS
B4: SD3022 (VHH)
VHH: EVQLVESGGGVVQPGGSLRLSCAASISIFDIYAMDWYRQAPGKQRELVAVSFRDGSTYYADSVKGRFTISRDNSKNTLYLQMNSLRPEDTAVYLCHVSLYRDPLGVAGGIGVYWGKGALVTVSS
B5: SD3029 (VHH)
VHH: EVQLVESGGGLVQPGGSLRLSCAVSISIFDIYAMDWYRQAPGKQRDLVATSFRDGSTNYADSVKGRFTISRDNAKNTLYLQMNSLKPEDTAVYLCHVSLYRDPLGVAGGLGVYWGKGALVTVSS
B6: SD3030 (VHH)
VHH: EVQLVESGGGLVQPGGSLRLSCAVSISIFDIYAMDWYRQAPGKQRDLVATSFRDGSTNYADSVKGRFTISRDNAKNTLYLQMNSLKPEDTAVYLCHVSLYRDPLGVAGGIGVYWGKGALVTVSS
B7: SD3079 (VHH)
VHH: EVQLVESGGGVVQPGGSLRLSCAASISIFDIYAMDWYRQAPGKQRELVAVSFRDGSTYYADSVKGRFTISRDNSKNTLYLQMNSLRAEDTAVYYCHVSLYRDPLGVAGGLGVYWGQGTLVTVSS
B8: SD3119 (VHH)
VHH: QVQLVESGGGVVQPGGSLRLSCAASISIFDIYAMDWYRQAPGKQRELVAVSFRDGSTYYADSVKGRFTISRDNSKNTLYLQMNSLRAEDTAVYYCHVSLYRDPLGVAGGIGVYWGQGTLVTVSS
B9: SD1076 (VHH)
VHH: EVQLVESGGGLVQAGGSLTLSCAGSGFAFSIATMGWYRQAPGKQRELVADITSGGSTNYADSVKGRFTISRDNAKNTVYLQMNSLKPEDTAVYYCNADSLATGWRQYSYWGKGTQVTVSS
B10: SD1017 (VHH)
VHH: EVQLVESGGGLVQAGGSLRLSCAASGRTYAMAWFRQAPGKEREFVAHINALGTRAYYSDSVEGRFTISRDNAKNTGYLQMNSLEPEDTAVYVCAAGGQWRAAPVADAAQYDFWGQGTQVTVSS
B11: SD1049 (VHH)
VHH: EVQLVESGGGLVQAGGSLRLSCAASGRTLSLYSVGWFRQAPGKEREFVATIGWNSGRTFYVDSMKGRFTISRDNAKNTVYLQMNDLKVEDTAVYYCAAAKGPLRLSNQADYWGQGTQVTVSS
B12: SD1070 (VHH)
VHH: EVQLVESGGGLVQAGGSLRISCAASGRTFSIYSMGWFRQAPGKEREFVATIGWNSGRTFYADSMKERFTISADNARNTLYLQMNSLKFEDTAVYYCAAAKGPLRLSSQADYWGQGTQVTVSS
B13: SD2020 (VHH)
VHH: EVQLVESGGGLVQPGGSLRLSCAAAGGAFNRQLVAWFRQAPGKKREFVATVTTSGGSSYYADSVKGRFTISRDTAKNTVALQMNSLKAEDAAVYYCAARDSFTVAPYYPPESYAYWGQGTQVTVSS
B14: MD2402 (protein)
chain: EVQLVESGGGLVQPGGSLRLSCAVSISIFDIYAMDWYRQAPGKQRDLVATSFRDGSTNYADSVKGRFTISRDNAKNTLYLQMNSLKPEDTAVYLCHVSLYRDPLGVAGGMGVYWGKGALVTVSSAAAGGGGSGGGGSGGGGSGGGGSGGGGSGGGGSGGGGSEVQLVESGGGLVQAGGSLKLSCAASGRTYAMGWFRQAPGKEREFVAHINALGTRTYYSDSVKGRFTISRDNAKNTEYLEMNNLKPEDTAVYYCTAQGQWRAAPVAVAAEYEFWGQGTQVTVSSLINLEGGGGSGGGGSGGGGSGGGGSGGGGSGGGGSGGGGSPAGEVQLVESGGGLVQPGGSLRLSCAATGFTLENKAIGWFRQTPGSEREGVLCISKSGSWTYYTDSMRGRFTISRDNAENTVYLQMDSLKPEDTAVYYCATTTAGGGLCWDGTTFSRLASSWGQGTQVTVSSAAAGGGGSGGGGSGGGGSGGGGSGGGGSGGGGSGGGGSEVQLVESGGGLVQPGGSLKLSCAASGFTFSTSWMYWLRQAPGKGLEWVSVINTDGGTYYADSVKDRFTISRDNAKDTLYLQMSSLKSEDTAVYYCAKDWGGPEPTRGQGTQVTVSS
B15: MD2404 (bispecific antibody)
chain: EVQLVESGGGLVQPGGSLRLSCAVSISIFDIYAMDWYRQAPGKQRDLVATSFRDGSTNYADSVKGRFTISRDNAKNTLYLQMNSLKPEDTAVYLCHVSLYRDPLGVAGGMGVYWGKGALVTVSSAAAGGGGSGGGGSGGGGSGGGGSGGGGSGGGGSGGGGSEVQLVESGGGLVQAGGSLKLSCAASGRTYAMGWFRQAPGKEREFVAHINALGTRTYYSDSVKGRFTISRDNAKNTEYLEMNNLKPEDTAVYYCTAQGQWRAAPVAVAAEYEFWGQGTQVTVSSLINLEGGGGSGGGGSGGGGSGGGGSGGGGSGGGGSGGGGSPAGEVQLVESGGGLVQPGGSLKLSCAASGFTFSTSWMYWLRQAPGKGLEWVSVINTDGGTYYADSVKDRFTISRDNAKDTLYLQMSSLKSEDTAVYYCAKDWGGPEPTRGQGTQVTVSSAAAGGGGSGGGGSGGGGSGGGGSGGGGSGGGGSGGGGSEVQLVESGGGLVQPGGSLKLSCAASGFTFSTSWMYWLRQAPGKGLEWVSVINTDGGTYYADSVKDRFTISRDNAKDTLYLQMSSLKSEDTAVYYCAKDWGGPEPTRGQGTQVTVSS

How the values were obtained:
Assay in all cases: cell-based or functional assay
[1] = molecular target: hemagglutinin (HA) of influenza B/Malaysia/2506/04 (Victoria) (influenza B virus)
[2] = molecular target: hemagglutinin (HA) of influenza B/Florida/04/06 (Yamagata) (influenza B virus)
[3] = molecular target: hemagglutinin (HA) of influenza B/Lee/40 (Old) (influenza B virus) (UniProt P03460)
[4] = molecular target: hemagglutinin (HA) of influenza B/Harbin/7/94 (Yamagata) (influenza B virus)
[5] = molecular target: hemagglutinin (HA) of influenza B/Massachusetts/02/12 (Yamagata) (influenza B virus)
[6] = molecular target: hemagglutinin (HA) of influenza A/Hong Kong/1/68 (H3N2) (influenza A virus A/Hong Kong/1/68 (H3N2)) (UniProt Q91MA7)
[7] = molecular target: hemagglutinin (HA) of influenza A/Vietnam/1194/04 (H5N1) (influenza A virus A/Vietnam/1194/04 (H5N1))
[8] = molecular target: hemagglutinin (HA) of influenza A/New Caledonia/20/99 (H1N1) (influenza A virus A/New Caledonia/20/99 (H1N1))
[9] = molecular target: hemagglutinin (HA) of influenza A/Brisbane/10/07 (H3N2) (influenza A virus A/Brisbane/10/07 (H3N2))
[10] = molecular target: hemagglutinin (HA) of influenza A/California/07/09 (H1N1) (influenza A virus A/California/07/09 (H1N1))
[11] = molecular target: HA of H5N1 A/Vietnam/1194/04 (influenza A virus)
[12] = molecular target: HA of H3N2 A/Wisconsin/67/2005 (influenza A virus)
[13] = molecular target: HA of H1N1 A/Puerto Rico/8/34-MA (influenza A virus)
[14] = molecular target: HA of H7N3 A/NIBRG/60 (A/mallard/NL/12/00) (influenza A virus)
[15] = molecular target: HA of H1N1 A/New Caledonia/20/1999 (influenza A virus)
[16] = molecular target: HA of H5N1 A/PR8 H5N1 HK97 (influenza A virus)
[17] = molecular target: HA of H3N2 A/Brisbane/10/2007 (influenza A virus)
[18] = molecular target: HA of H1N1 A/Brisbane/59/07 (influenza A virus)
[19] = molecular target: HA of B/Florida/04/2006 (Yamagata) (influenza B virus)
[20] = molecular target: hemagglutinin (HA) of influenza virus H5N1 A/Vietnam/1194/04 (influenza A virus)
[21] = molecular target: hemagglutinin (HA) of influenza virus B/Lee/40 (Old) (influenza B virus) (UniProt P03460)
[22] = molecular target: hemagglutinin (HA) of influenza virus B/Florida/04/06 (Yamagata) (influenza B virus)
[23] = molecular target: hemagglutinin (HA) of influenza virus H7N3 A/NIBRG/60 (A/mallard/Netherlands/12/00) (influenza A virus)
[24] = molecular target: hemagglutinin (HA) of influenza virus H3N2 A/HK/1/68-MA (influenza A virus)
[25] = molecular target: hemagglutinin (HA) of influenza virus H1N1 A/Puerto Rico/8/34-MA (influenza A virus)

| Binder | VNA IC50 [6] | VNA IC50 [7] | VNA IC50 [8] | VNA IC50 [9] | VNA titer [11] | VNA titer [14] | VNA titer [17] | further results |
| --- | --- | --- | --- | --- | --- | --- | --- | --- |
| B1 | – | – | – | – | – | – | – | VNA IC50 [1]: 40 nM; VNA IC50 [2]: 659 nM; VNA IC50 [3]: 32 nM; VNA IC50 [4]: > 1000 nM; VNA IC50 [5]: 795 nM |
| B2 | 126 nM | 20 nM | 6 nM | 318 nM | – | – | – | – |
| B3 | – | 15 nM | 3 nM | > 1000 nM | – | – | – | VNA IC50 [10]: 3 nM |
| B4 | – | 20 nM | 8 nM | 632 nM | – | – | – | VNA IC50 [10]: 3 nM |
| B5 | 251 nM | 20 nM | 4 nM | 632 nM | – | – | – | VNA IC50 [10]: 3 nM |
| B6 | 126 nM | 20 nM | 8 nM | 274 nM | – | – | – | VNA IC50 [10]: 3 nM |
| B7 | 503 nM | 16 nM | 5 nM | 949 nM | – | – | – | – |
| B8 | 101 nM | 6 nM | 3 nM | 253 nM | – | – | – | – |
| B9 | – | – | – | – | 84.7 nM | > 1000 nM | > 1000 nM | VNA titer [12]: > 1000 nM; VNA titer [13]: 8.7 nM; VNA titer [15]: 22.1 nM; VNA titer [16]: 66.8 nM |
| B10 | – | – | – | – | > 1000 nM | 34.7 nM | > 1000 nM | VNA titer [15]: > 1000 nM; VNA titer [18]: > 1000 nM |
| B11 | – | – | – | – | > 1000 nM | 115 nM | 19.1 nM | VNA titer [12]: > 1000 nM; VNA titer [15]: > 1000 nM; VNA titer [18]: > 1000 nM |
| B12 | – | – | – | – | > 1000 nM | 366 nM | 15.3 nM | VNA titer [12]: > 1000 nM; VNA titer [13]: > 1000 nM; VNA titer [15]: > 1000 nM; VNA titer [19]: > 1000 nM |
| B13 | – | – | – | – | > 1000 nM | > 1000 nM | 9.3 nM | VNA titer [12]: 304 nM |
| B14 | – | – | – | – | – | – | – | average neutralization titer [20]: 23.8 nM; average neutralization titer [21]: 35.4 nM; average neutralization titer [22]: 14.1 nM; average neutralization titer [23]: 33.6 nM; average neutralization titer [24]: 28.3 nM; average neutralization titer [25]: 12.8 nM |
| B15 | – | – | – | – | – | – | – | average neutralization titer [20]: 20.4 nM; average neutralization titer [21]: 30.3 nM; average neutralization titer [22]: 2.1 nM; average neutralization titer [23]: 34.3 nM; average neutralization titer [24]: 57.7 nM; average neutralization titer [25]: 12.2 nM |
